Assay results as given in patent US20110301228A1.

Biological target: 5-FAM/QXL520 labeled MMP substrate FRET peptide (SensoLyte 520 MMP-1 Assay Kit, AnaSpec)
Experiment: cell-based or functional assay

relative fluorescence units released on cleavage of the FRET peptide (medium of AdhGRE.MMP1-infected, DEX-treated cells) (relative fluorescence units): 59000
relative fluorescence units released on cleavage of the FRET peptide (medium of AdhGRE.MMP1-infected, untreated cells) (relative fluorescence units): 5710
Substance: recombinant human MMP1 (wild-type), secreted by AdhGRE.MMP1-infected HTM cells and activated with APMA (active form, 41 kDa) (from UniProt P03956 100-469) (enzyme)
